Assay results: US20210188989A1 (SYSTIMMUNE, published 2021)
Changes are numbered by the printed parent chain.

T1: recombinant cynomolgus 4-1BB extracellular domain protein (cynomolgus, UniProt A9YYE7 24-186)
T1 construct: Analyte in the Octet assay
T1 sequence: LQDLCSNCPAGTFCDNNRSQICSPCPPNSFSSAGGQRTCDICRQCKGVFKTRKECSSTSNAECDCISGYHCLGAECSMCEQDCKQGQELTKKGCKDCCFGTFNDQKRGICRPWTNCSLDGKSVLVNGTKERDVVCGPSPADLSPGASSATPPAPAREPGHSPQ

B1: 416G1 (antibody, human IgG1, kappa, V domains shown)
VH: QSVEESGGRLVTPGTPLTLTCTVSGFTINSYHMIWVRQAPGEGLEYIGFINDGGFTYYASWAKGRFIISRTSTTVDLKMTSLTVADTATYFCARGVDGTSYPDLWGPGTLVTVSS
VL: DVVMTQTPASVSEPVGGAVTIKCQASQSIGSDLAWYQQKPGQPPKLLIYRASTLASGVSSRFKGSGSGTEFTLTISDLECADAATYYCQCIYYGSDDVIYHTFGGGTEVVVKR
notes: one of the 34 chimeric antibodies; rabbit variable regions on human IgG1 and human kappa; also called 416G1 chimeric rabbit/human IgG
B2: 418E10 (antibody, human IgG1, kappa, V domains shown)
VH: QSLEESGGRLVTPGTPLTLTCTASDFSLSTYYMSWVRQAPGKGLEWIGSIYDSGAAYYATWAKGRFTISRTSTTVDLRMTSLTAADTATYFCARDPINNAIWGQGTLVTVSS
VL: ALVMTQTPSPVSAAVGGTVTINCQASQSIGSNLNWYQQKPGQPPKLLIYYVSTLASGVPSRFKGSGSGTEYTLTISGVQCDDAATYYCLGVWNYWGDDGTAFGGGTEVEVKR
notes: one of the 34 chimeric antibodies; rabbit variable regions on human IgG1 and human kappa; also called 418E10 chimeric rabbit/human IgG
B3: 418E4 (antibody, human IgG1, kappa, V domains shown)
VH: B2 VH with D25E, T30S, D52A, A55S, T60S, R78K, A93V, A100D, Q104P
VL: B2 VL with G30A, S31T, V51T, T53S, K63S, Y71F, V110F
notes: one of the 34 chimeric antibodies; rabbit variable regions on human IgG1 and human kappa; also called 418E4 chimeric rabbit/human IgG
B4: 419D9 (antibody, human IgG1, kappa, V domains shown)
VH: QSLEESGGDLVKPGASLTLTCTASGFSFSSRHYMCWVRQAPGEGLEWIACIYTGSSGTPHYASWAKGRFTISQTSSTTVTLQMTSLTAADTATYFCSSEGNLWGPGTLVTVSS
VL: AQVLTQTASPVSAAVGGTVTINCQSSQSVYSNWLSWYQQKPGQPPKRLIYSASTLASGVPSRFKGSGSGTQFTLTISDLECDDAATYYCAGGYNTVTDTFAFGRGTEVEVKR
notes: one of the 34 chimeric antibodies; rabbit variable regions on human IgG1 and human kappa; also called 419D9 chimeric rabbit/human IgG
B5: 420H6 (antibody, human IgG1, kappa, V domains shown)
VH: QQQLEESGGGLVKPGGTLTLTCKASGIDFSSSYYMCWVRQAPGEGLEWIACIYTGGSGTPHYASWAKGRFTISQTSSTTVTLQMTSLTAADTATYFCAREGSLWGQGTLVTVSS
VL: B4 VL with S25A, T97I, R104G, V110F
notes: one of the 34 chimeric antibodies; rabbit variable regions on human IgG1 and human kappa; also called 420H6 chimeric rabbit/human IgG
B6: 459F1 (antibody, human IgG1, kappa, V domains shown)
VH: ESLEESGGDLVKPGASLTLTCTASGIDFSRRYYMCWVRQAPGKGLEWIACMYTGSRDTPHYASWAKGRFTISQTSSTTVTLQMTSLTAADTATYFCAREGNLWGPGTLVTVSS
VL: B4 VL with L34F, R47L, R104G, V110F
notes: one of the 34 chimeric antibodies; rabbit variable regions on human IgG1 and human kappa; also called 459F1 chimeric rabbit/human IgG
B7: 413F3 VHv1VLv1 (antibody, human IgG1, kappa, V domains shown)
VH: EVQLVESGGGLVQPGGSLRLSCAASGIDFSSNYMCWVRQAPGKGLEWIACIYGDSSDNSYSASSAKGRFTISRDNSKNTLYLQMNSLRAEDTAVYYCARSGYSYLGYFNLWGQGTLVTVSS
VL: DIQMTQSPSSLSASVGDRVTITCQASQSIYSNLAWYQQKPGKVPKLLIYSTSTLASGVPSRFSGSGSGTDFTLTISSLQPEDVATYYCQNYYGSSTDSYGNPFGGGTKVEIKR
notes: one of the humanized antibodies; also called 413F3 humanized
B8: 418E10 VHv1VLv1 (antibody, human IgG1, kappa, V domains shown)
VH: EVQLVESGGGLVQPGGSLRLSCAASGFSLSTYYMSWVRQAPGKGLEWIGSIYDSGAAYYATSAKGRFTISRDNSKNTLYLQMNSLRAEDTAVYYCARDPINNAIWGQGTLVTVSS
VL: DIQMTQSPSTLSASVGDRVTITCQASQSIGSNLNWYQQKPGKAPKLLIYYVSTLASGVPSRFSGSGSGTEFTLTISSLQPDDFATYYCLGVWNYWGDDGTAFGGGTKVEIKR
notes: one of the humanized antibodies; also called 418E10 humanized
B9: 418E4 VHv1VLv1 (antibody, human IgG1, kappa, V domains shown)
VH: B8 VH with T31S, D53A, A56S, T61S, A103D
VL: B8 VL with G30A, S31T, V51T, T53S
notes: one of the humanized antibodies; also called 418E4 humanized
B10: 418H5 VHv2VLv1 (antibody, human IgG1, kappa, V domains shown)
VH: EVQLVESGGGLVQPGGSLRLSCTASGIDLSAYHMSWVRQAPGKGLEYIGMIGSSGTIHYANSAKGRFTISKDNTKNTVDLQMNSLRAEDTAVYYCARDSYNSDYAFNLWGQGTLVTVSS
VL: DIQMTQSPSSVSASVGDRVTITCQSSPSVYKNNQLAWYQQKPGKAPKLLIYLASTLASGVPSRFSGSGSGTDFTLTISSLQPEDFATYYCAGGYSSSSDTAFGGGTKVEIKR
notes: one of the humanized antibodies; also called 418H5 humanized
B11: 464C11 VHv1VLv1 (antibody, human IgG1, kappa, V domains shown)
VH: EVQLVESGGGLVQPGPSLRLSCTASGFSLSHYWMTWVRQAPGKGLEYIGFINVGGDTSYASSVKGRFTISRDDSKSIAYLQMNSLKTEDTAVYYCGRGGLTFGWDLWGQGTLVTVSS
VL: DIQMTQSPSTLSASVGDRVTITCQSSQSVYSNSFLSWYQQKPGKAPKLLIYSASDLASGVPSRFSGSGSGTEFTLTISSLQPDDFATYYCAGVYSDNTYVFGGGTKVEIKR
notes: one of the humanized antibodies; also called 464C11 humanized
B12: 419D9 VHv3VLv3 (antibody, human IgG1, kappa, V domains shown)
VH: EVQLLESGGGLVQPGGSLRLSCTASGFSFSSRHYMCWVRQAPGKGLEWIACIYTGSSGTPHYASSAKGRFTISQDNSKNTVTLQMNSLRAEDTAVYYCAREGNLWGQGTLVTVSS
VL: DIQMTQSPSTLSASVGDRVTITCQSSQSVYSNWLSWYQQKPGKAPKRLIYSASTLASGVPSRFSGSGSGTEFTLTISSLQPDDFATYYCAGGYNTVTDTFAFGGGTKVEIKR
notes: one of the humanized antibodies; also called 419D9 humanized
B13: 460C3 VHv1VLv1 (antibody, human IgG1, kappa, V domains shown)
VH: EVQLLESGGGLVQPGGSLRLSCAASGIDFSRRYYMCWVRQAPGKGLEWIACIYTGSRDTPHYASSAKGRFTISRDNSKNTLYLQMNSLRAEDTAVYYCAREGSLWGQGTLVTVSS
VL: B12 VL with L34F, R47L, T97I
notes: one of the humanized antibodies; also called 460C3 humanized
B14: 459F1 VHv1VLv1 (antibody, human IgG1, kappa, V domains shown)
VH: B13 VH with I52M, S103N
VL: B12 VL with L34F, R47L
notes: one of the humanized antibodies; also called 459F1 humanized
B15: 420H6 VHv1VLv1 (antibody, human IgG1, kappa, V domains shown)
VH: B13 VH with R31S, R32S, S56G, R57S, D58G
VL: B12 VL with S25A, R47L, T97I
notes: one of the humanized antibodies; also called 420H6 humanized
B16: 472E4 VHv1VLv1 (antibody, human IgG1, kappa, V domains shown)
VH: EVQLVESGGGLVQPGGSLRLSCAASGFSLNNNAISWVRQAPGKGLEWVAIIQNTGTTDYARSAKGRFTISRDNSKNTLYLQMNSLRAEDTAVYYCARGYGFESELVIWGQGTLVTVSS
VL: DIQMTQSPSSLSASVGDRVTITCQSSQSVYNNNALAWYQQKPGKVPKLLIYLASTLASGVPSRFSGSGSGTDFTLTISSLQPEDVATYYCLGVYNDDVDNGFGGGTKVEIKR
notes: one of the humanized antibodies; also called 472E4 humanized
B17: 411H11 VHv1VLv1 (antibody, human IgG1, kappa, V domains shown)
VH: EVQLVESGGGLVQPGGSLRLSCAASGFTISSHHMIWVRQAPGKGLQYIGFINDGDYTYYTNSAKGRFTISRDNSKNTLYLQMNSLRAEDTAVYYCARGVDGTSYPGLWGQGTLVTVSS
VL: DVVMTQSPSSVSASVGDRVTITCQASQSIGADLAWYQQKPGKAPKLLIYRASTLASGVPSRFSGSGSGTDFTLTISSLQPEDFATYYCQAIYYGTDDVIYHTFGGGTKVEIKR
notes: one of the humanized antibodies; also called 411H11 humanized
B18: 416G1 VHv1VLv1 (antibody, human IgG1, kappa, V domains shown)
VH: B17 VH with S30N, H32Y, Q46E, D55G, Y56F, T60A, N61S, G106D
VL: B17 VL with A31S, A90S, T95S
notes: one of the humanized antibodies; also called 416G1 humanized
B19: 420H5 VHv3VLv3 (antibody, human IgG1, kappa, V domains shown)
VH: QSLVESGGGLVQPGGSLRLSCAASGFSFSSNYWICWVRQAPGKGLEWIACIYVGSSGDTYYASSAKGRFTISRDNSKNTLYLQMNSLRAEDTAVYYCARDSSSYYMFNLWGQGTLVTVSS
VL: ALVMTQSPSTLSASVGDRVTINCQASEDIDTYLAWYQQKPGKAPKLLIFYASDLASGVPSRFSGSGSGTEFTLTISSLQPDDFATYYCQGGYYTSSADTRGAFGGGTKVEIKR
notes: one of the humanized antibodies; also called 420H5 humanized
B20: 470C6 VHv3VLv3 (antibody, human IgG1, kappa, V domains shown)
VH: B19 VH with S29T, N31S, W33Y, I34M, V53T, D58S, S63N
VL: B19 VL with T31N, A97T
notes: one of the humanized antibodies; also called 470C6 humanized
B21: 416F8 VHv3VLv1 (antibody, human IgG1, kappa, V domains shown)
VH: QSLVESGGGLVQPGGSLRLSCAASGFSLSNYYMNWVRQAPGKGLEYIGIISSSGSAYYASSAKGRFTISRDNSKNTLYLQMNSLRAEDTAVYYCARGDYGMDLWGQGTLVTVSS
VL: DIQMTQSPSSLSASVGDRVTITCQSSQTVYNNNLLSWYQQKPGKVPKLLIYYASTLAFGVPSRFSGSGSGTDFTLTISSLQPEDVATYYCQGGYSGWIYVFGGGTKVEIKR
notes: one of the humanized antibodies; also called 416F8 humanized
B22: 466F6 VHv2VLv5 (antibody, human IgG1, kappa, V domains shown)
VH: RSLVESGGGLVQPGGSLRLSCTASGFTISSYHMQWVRQAPGKGLEYIGTISSGGNVYYASSARGRFTISRPSSKNTVDLQMNSLRAEDTAVYYCARDSGYSDPMWGQGTLVTVSS
VL: DVVMTQSPSSVSASVGDRVTITCQASQNIRTYLSWYQQKPGKAPKLLIYAAANLASGVPSRFSGSGSGTDFTLTISDLEPGDAATYYCQSTYLGTDYVGGAFGGGTKVEIKR
notes: one of the humanized antibodies; also called 466F6 humanized

What follows are binders tested against T1, recombinant cynomolgus 4-1BB … (assay: Octet BLI; chimeric IgG from transfection supernatant on anti-human Fc biosensor; recombinant cynomolgus 41BB; column kdis(1/s) Cynomolgus).
Source text: (§1) The heavy and light chain expression plasmids generated from each well were transiently co-transfected to produce rabbit/human chimeric antibodies. Recombinant antibody supernatants were confirmed to contain antibodies specific for human and cynomolgus 4-1BB using bio-layer interferometry analysis on a ForteBio Octet Red 96 instrument. Anti-human Fc biosensors (Pall ForteBio) were used to capture antibodies in the supernatants. Association to human or cynomolgus 4-1BB was observed by real-time interferometry by placing the biosensors in wells containing recombinant human or cynomolgus 4-1BB extracellular domain protein. Dissociation was measured after transfer of the biosensors into wells containing 10× kinetics buffer (Pall ForteBio). The software provided by the manufacturer was used to analyze the interferometry data. A summary of the primary BCC screening data and the corresponding screening data for 34 recombinant chimeric rabbit/human IgG antibodies is shown in FIG. 2.

Binder | koff
B1 | 0.0019 s⁻¹
B2 | 0.0015 s⁻¹
B3 | 0.005 s⁻¹
B4 | 0.0014 s⁻¹
B5 | 0.002 s⁻¹
B6 | 0.0075 s⁻¹

These binders were tested against T2, recombinant human 4-1BB extracellular domain protein (human, UniProt Q07011 24-186) (assay: Octet, binding off-rate kdis; the sheet names no species of 41BB, paragraph 86: 'binding to human and recombinant 4-1BB by octet assay').
T2 construct: extracellular domain; Analyte in the Octet assay; also called CD137; TNFRSF9

Binder | koff
B7 | 0.00224 s⁻¹
B8 | 0.000958 s⁻¹
B9 | 0.00277 s⁻¹
B10 | 0.00245 s⁻¹
B11 | 0.000784 s⁻¹
B12 | 0.00284 s⁻¹
B13 | 0.000728 s⁻¹
B14 | 0.00131 s⁻¹
B15 | 0.00128 s⁻¹
B16 | 0.00265 s⁻¹
B17 | 0.00179 s⁻¹
B18 | 0.00166 s⁻¹
B19 | 0.00178 s⁻¹
B20 | 0.00183 s⁻¹
B21 | 0.00645 s⁻¹
B22 | 0.00254 s⁻¹

Each binder was assayed against T2, recombinant human 4-1BB extracellular … (assay: Octet BLI; chimeric IgG from transfection supernatant on anti-human Fc biosensor; recombinant human 41BB; column kdis(1/s) Human).
Source text: as §1

Binder | koff
B1 | 0.0014 s⁻¹
B2 | 0.0011 s⁻¹
B3 | 0.0036 s⁻¹
B4 | 0.00063 s⁻¹
B5 | 0.00094 s⁻¹
B6 | 0.00075 s⁻¹
